The nature of the series: label from the status in PepcDB records.
As for “MAQSFLLMGALIQHHLKGEKADLLTPEKLLEAANKQGTVPSRVRYQWMEDEETGRLKAVGYHTSMESGRDQVRVRLLKHDFPNNRYEFWEEGATGPTILWTPDNPGIELPTDTAHGEQPVIPSAIPGLEIPEMDDVSILATPMPDEKDFRDYILVFPENAFPPIYVYLSKKIDTPIWLEHHHHHH”, the protein production entry is on record as “not failed”. The value for “MVYELVYELVYAKIYTNKRIPIREDPCMARTTRPLTHTEVQKAKATDKDLTLHDGDGLFLLVKTTGKKIWRFRYQVPGTSKRTMISLGAYPALSLADAREVRSEKLAILVKGIDPQARAGEEAEKLQIAQESIFVNVARKWFELKQSHVSADHAKDIWRSIEKDILPSIENVPIQELKARTLIQVLEPIKARGALETVRRLVQRINEIMIYAVNVGLIEANPASGIGNAFERPKKQHMPIIRPEELPKLMRTISMSNLSIPTRCLLEWQLLTLIRPAEASATAWSEIDIENKQWCIPAERMKAKRDHIVPLSEQALELLEIMRPISGNRQYVFPSRNDPRKPMNSQTANAALKRIGYSGKLVAHGLRSIASTAMNEAGFNADVIEAALAHSDKNEVRRAYNRSTYLTQRVELLGWWGEFVNRTQVI” was “failed”. The result for “NSHKVQMEKEIALKQKKFEQKHLQNYTDEIVGLYNEIRGFRHDYAGMLVSMQMAIDSGNLQEIDRIYNEVLVKANHKLRSDKYTYFDLNNIEDSALRSLVAQSIVYARNNGVEFTLEVKDTITKLPIELLDLVRIMSVLLNNAVEGSADSYKKQMEVAVIKMETETVIVIQNSCKMTMTPSGDLFALGFSTKGRNRGVGLNNVKELLDKYNNIILETEMEGSTFRQIIRFKREFE” reads “failed”; that for “MASGSTQVKYLGIYQKMKQQILDGEYKINEKIPSSPVLAEEFDVSVLTIKKALDLLVRDGYIIRRRGSGTVVQDWRQQEKARMIQTLTGTKAVYGSEVESKIIEFTIVGADEIIAEKLGISVGDFVYKIIRLRIIHSIPTIMEHTWMPISVIPGVEVSVLEESIYSHIQNKLGLQVGTSVVRVKGIRPDDKEKQFMNLTNQDFLMRVEQVAYLTDGRTFEYSYADHLPETFEFETVITAKSYKEA”, “not failed”; that for “MIPEIAGLPALEWTSSAGHASYDEAEATLTLAAASGVDWTNDSLGGEPQHGATALGFRAPAAFSLSARVLVASPRTTFDAGVLTLWADSDHWAKLCFEYSPQGEAMVVSVVTNGYSDDSNGPVVTAPWVYLRVSRVGPAWAFHSSTDGRDWSLVRLFRLDTEKPVHVGFMSQAPMGDGCEARFDAIELKEEPPAELRDGS”, “failed”. The result for “MSNQFIQYLNRAASGSIPGFVIMKLLMLELPNLMGLLLPLGFYVALLLAYGRLYAESEMTVLRACGYGPRQLLKHSFAMATVVLVVVAIVMIWASPVIAVERIKLIRSTGIKTLIQTIMPGRFHAINSGQQIFYVQSMNRDHSQAEQIFMAKHSVQDNRLLWDVLWADKAFAEVNPQTGEEYIVLQNGKEYQGVPGHADYQIAEFASYKSKLPNPTVVMHDDARTAKTRDLWPLNNHDLKKAAELQWRISIPLMVLTLTLVAVPLSRVSPRSGKYSKLLPAIIIYIFYANFMFVSRDAIATGKIPWWIGMWWVHVAVAILGILFIWRNQVKLA” reads “failed”; that for “VNATQRKLLMQLVIGAAWVDGDLDQPERQYLQTLLERQKLDHDPDLLVLLETPIGLPQLEAWLVTFLQGTSTPTRLAALATIANLLMADGVVNRSEHSLLDEIHSLMAQIPASRDEEEYRQAAPGLVQGLSGLVRRALNGAKHLFQ”, “not failed”; that for “ERATPPVEPRQPPEAQPAERIVAERIVQELVRAGANLNNVRTMLRNVMDNNAVAFSRVEWNILLQHFPDMHTNGISSDSVLANELRQTLRQVVHQQRTQRALAPILSPAPSRPVASSSRSSQRTLLGRFTGWMAPRQTSSSSQAT”, “failed”. On to “RSPPSNLALASETPDSLQVSWTPPLGRVLHYWLTYAPASGLGPEKSVSVPGARSHVTLPDLQAATKYRVLVSAIYAAGRSEAVSATGQTACP”, for which the protein production entry is given as “not failed”. Turning to “MLVSSSKITRAREMVTKTEEKQLNQLEIQVDNGGGGTWEYLCLVRNLKVRRSEKVLKHGSSILNDQKKRSALGPDEWTLNEQVAIAAMDCQCLGVAQSCIKALQTKFPGSKRVGRLEALLLEAKGLWGEAEEAYASLLEDNPLDQAIHKRRVAISKALGKPSIAIELLNKYLELFMADHDAWRELAELYLSLQMYKQAAFCYEELILSQPTVPLYHLAYAEVLYTIGGVENIISARKYYAATVDLTGGKNTRALLGICLCASAIAQLSKGRNKEDKDATAAPELHSLAAAAVEKEYKQKAPDKLQLISSALRILKT”, the protein production entry is given as “failed”. The result for “MDLWKLYQPGTPAAIVAWGQLGTAHAKTTYGLLRHSRLFKPVCVVAEHEGKMASDFVKPVRYDVPVVSSVEKAKEMGAEVLIIGVSNPGGYLEEQIATLVKKALSLGMDVISGLHFKISQQTEFLKIAHENGTRIIDIRIPPLELDVLRGGIYRKKIKVVGVFGTDCVVGKRTTAVQLWERALEKGIKAGFLATGQTGILIGADAGYVIDAVPADFVSGVVEKAVLKLEKTGKEIVFVEGQGALRHPAYGQVTLGLLYGSNPDVVFLVHDPSRDHFESFPEIPKKPDFEEERRLIETLSNAKVIGGVSLNGGFETDLPVYDPFNTDDLDEMLERAMVW” reads “not failed”; that for “MTYLVTGATGGLGGYALNYLKELVPMSDIYALVRSKEKGADLKAAGFNIRVGDYSDAESMKQAFAGIDRVLFVSGAPGNRQVEHENVINAAKKAGVSYIAYTSFAGADKSTSALAEDHFFTEKVIEKSGIAHTFLRNNWYFENEMPMIGGALSAGKFVYAAENGKVGWALKREYAEVAAKAVAGAGFPEILELSGPLMTYEELTKALKEATGKDFDVISSDDKGFVENLVSVGLPQPVAEMFLSFQHDIKNDQLDVTSDDFEKALGKPLTNRVDALRELLKLEHHHHHH”, “not failed”; that for “MLQIIFLVIGLFIIVLALSFAFKRYARLILWSSAITLFAGTLLLVGIGVINPIDGDNTGSTTFWGTIITLISGAALAFCAEMLKEGNKGKTKVQNGNSSVSGKQTADNEETVVLIGMLHTELAIKVFAKAIEAGYIGEKGSHYKWNDSKVLLAYMCGRIYCGDKPEYSEMDEKSYWKFGRMGVFPDTELSNLFEMPDLGQSRSNRKDLAVPAKSKEIDKFFE”, “failed”.

As for “MSISSHDVGRTYPTTDPYLVTAEKIRELATALGDNAPAYRGDDPIAPPTFAMVLASRAWEALFDDEQLDLRLEHMIHTDQSFHWIRPLHEGDEVTAALTITSVRTRGNTDIIGINVSLDHVDGEHLGNATSTLWHTRPEGNA”, the protein production result is “failed”.

As for “MRMIIAFLLGCLGMFLTTGCAFVSVPLMSAPQPLAEQVLEGEGTKKILIVDISGAIGDQAKGGGLLSRGTPSTVSLVREVLLKAERDPKVAGLILRINSPGGTVTASDIIRHDLLAFKERRNLPVSACIMGIGASGGYYVATAADGITAHPTALTGSIGVLLMTFNVEGLLGKVGVEEKTIKSGGKKDLLSPFRRATPEEERLVQGVIDQFHGRFVDVVQARPGNRLSRHDLLTLADGRIFSAADALAAGLIDRIGYLDDVIASLRDRIGDPDARVVTYFRPGSYQGSIYAESAAEPSMADLLGGFDMTGGGQFMYLWRPW”, the protein production entry is “failed”. The value for “MSKVIFALVLVVVLVACINATYVEFEEAYAPVDCKGQCTTPCEPLTACKEKCAESCETSADKKTCRRNCKKADCEPQDKVCDACRMKCHKACRAANCASECPKHEHKSDTCRACMKTNCK” was “not failed”.

As for “MRPVDEQWIEILRIQALCARYCLTIDTQDGEGWAGCFTEDGAFEFDGWVIRGRPALREYADAHARVVRGRHLTTDLLYEVDGDVATGRSASVVTLATAAGYKILGSGEYQDRLIKQDGQWRIAYRRLRNDRLVSDPSVAVNVADADVAAVVGHLLAAARRLGTQMSDT”, the protein production result is on record as “not failed”. The result for “MSIEPVFILVRPQMGENIGAAARAMLNFGLGRLRIVDPRDGWPNPKAVAMASGAGRLLDHAGLFPTVAEAIRDCDYVFATTARGRELTKPVMTPERAMAHGRALTGEGRRVGILFGPERTGLENEDVALANAIVTVPVNPEFFSLNLAQCVLLLAYEWRRQHDETPPEVIDMARVDFASGLEVEKLGDHFEEKLEAAGFFFPPEKAPGMKLNLRNMWARLPLTRADVQTLHGMLRQIAWKLKQ” reads “not failed”; that for “PLALFKWDLGFNLLECNQSAISMLNYTEDELKQCDFISALVPINEQKRVNKTCSDLLVNEGGEHGFNSLIKQNGNIILTEWHNSLIKDDS”, “failed”; that for “MTDNRKFEIVADTELPGTPERVWQAVTKDTPAWMFPTDQWPDVKTTEEYPSHLVSRMDGPDGWFNQLEHVLEPLEGGRAKLHYVHSGIFADNWDEQYDGASKHTEFYLHTLGQYLQHFDGKPVVFTDIQAPPSSQAPDGFVQLKQALGVDGLPTGTSVDVDIDGVGRLSAEVDFSNENFLGLRTADTMYRFFGRNVFGAPVGMTVHEFSGSGDSELTAKAWGAFLEKVYALEHHHHHH”, “failed”. The value for “MTKSYDVWWQKGQESDDDMARDHQEAWERTIEMLDTSDIKGKTILDVGCNQGGFLRKLYDTTPFKEGVGIDLARLSLEKAETLKGERPLTYYLTDKPQETNRTFDTAVSTSVLYLIEDIPQHAQDLKEVLKPGGVYYASFADLTNNPSRQFMDDTINQYGATPSQNHSLKHIVDSFVDAGFEVAVMKEPVPDVIDLTHYSDFYLSPNDYLQTLYEESFLIKASVKEGIGKLEHHHHHH” was “not failed”. For the sequence “MILELQNAILEMIAKGEPLAATIEQLCLKVEAAVPGIIASVLTFDGSRLHTLAGPSLPPDYSAAVDNLEAGPLAGSCGAAAYFGEAVVVTDIETDPRWQDFKSLVLPLGLKACWSSPIKRGERVIGSFAFYYRDHRGPKALERDLVEACVHLCTIAIDREERVMERQRLTYSDALTGLSNRARFNQLLAEDLPRSGRAWGILLVDIDNLKLVNDTFGHAAGDALIQVVADRVATTAGSQNTFRLGGDEFAVIVSDDKDLDLNARATDILKALSSPSTCDGHVVFPAATIGGALAETETNPDQTRQNADLALYHAKEHNRGRYVQHYPGLGTALTRRFRAVRDVGVALEDDRIDAHYQPILRLDTREIVGFEALCRMTTPSGEIIAAAHFHEATKDAHIAAELTQRMLLRVARDIRSWLARGLPLQHVGINLSAADFRGGNLQDRLCRIFGEAEVPLKHIILEVTESVYLGQRDYVVADEIKALRSKGLRVALDDFGTGYASLTHLLTVPVDIIKIDKSFIDRMVPGDAGTFIVEGLIGIADKLGIRVVAEGIETELQAVQLSQLGCKLGQGYLFSKAVDRTVAAAILEQHGQRLDQDKTRAGAL”, the protein production entry is listed as “failed”. The result for “MGRTSKDKRDVYYRLAKENGWRARSAFKLLQLDKEFQLFQGVTRAVDLCAAPGSWSQVLSQKIGGQGSGHVVAVDLQAMAPLPGVVQIQGDITQLSTAKEIIQHFKGCPADLVVCDGAPDVTGLHDVDEYMQAQLLLAALNIATHVLKPGGCFVAKIFRGRDVTLLYSQLQVFFSSVLCAKPRSSRNSSIEAFAVCQGYDPPEGFIPDLSKPLLDHSYDPDFNQLDGPTRIIVPFVTCGDLSSYDSDRSYPLDLEGGSEYKYTPPTQPPISPPYQEACTLKRKGQLAKEIRPQDCPISRVDTFPQPLAAPQCHTLLAPEMEDNEMSCSP” reads “failed”. The value for “MWTTRLVRSGLAALCAAVLVSSGCARFNDAQSQPFTTEPELRPQPSSTPPPPPPLPPVPFPKECPAPGVMQGCLESTSGLIMGIDSKTALVAERITGAVEEISISAEPKVKTVIPVDPAGDGGLMDIVLSPTYSQDRLMYAYISTPTDNRVVRVADGDIPKDILTGIPKGAAGNTGALIFTSPTTLVVMTGDAGDPALAADPQSLAGKVLRIEQPTTIDQTPPTTALSGIGSGGGLCIDPVDGSLYVADRTPTADRLQRITKNSEVSTVWTWPDKPGVAGCAAMDGTVLVNLINTKLTVAVRLAPSTGAVTGEPDVVRKDTHAHAWALRMSPDGNVWGATVNKTAGDAEKLDDVVFPLFPQGGGFPRNNDDKT” was “failed”.

The record behind these values is a protein production outcome set (Wang et al. 2014).
